Data published in US11629364B2, “Methods for synthesizing anticoagulant polysaccharides” (OPTIMVIA, LLC, priority 2019, dated 2023).

Experiment: 6OST activity: 6-O sulfated products detected by LCMS after lyase digestion
Format: biochemical
Conditions: for 6OST activity: N,2,6-HS products by MS: procedures of Example 4, expected; for 6OST sulfotransferase activity by sulfo group donor: NCS or PNS as sulfo donor, D0S6 and D2S6 disaccharides
Procedure: A study was conducted in accordance with embodiments of the present disclosure to confirm 6OST activity of enzymes comprising the amino acid sequence of SEQ ID NO: 18, SEQ ID NO: 20, or SEQ ID NO: 22 by detecting the presence of 6-O sulfated polysaccharide products as a result of their sulfotransfer reaction, using a similar LCMS procedure as in Example 3, except that the sulfo acceptor polysaccharide was prepared by chemically 6-O desulfating commercially available heparin (CAS code: 9041-08-1, available from Millipore Sigma), according to the procedure provided by Kariya, Y., et al., (2000) J. Biol. Chem. 275 (34):25949-25958).

| relative 6OST activity among engineered enzymes (comparing peak area percentages of D0S6 and D2S6 disaccharides) | Molecule | 6OST activity: N,2,6-HS products by MS | 6OST sulfotransferase activity by sulfo group donor |
| --- | --- | --- | --- |
|  | SEQ ID NO: 46: mutant of residues 67-377 of the pig 6OST enzyme, SEQ ID NO: 20 mutations (protein, Amino acid sequence encoding for engineered arylsulfate-dependent 6-O-sulfotransferase variant 7) MKYYFPVRELERSLHFDMKGDDVIVFLHIGHTGGTTFGRHLVQNVRLEVPCDCRPGQKKCTCYRPNRRETWLFSRFSTGWSCGTRADWTELTNCVPGVLDRRDPAALRTPRKFYYITLLRDPVSRYLSHWRHTQRGGANKTGLHMCDGRTPTPEELPPCYEGTDWSGCTLQEFMDCPYNLGNNRQVRMLADLSLVGCYNLSFIPEGKRSQLLLESAKKNLRGMAFFGLTEFQRKTQYLFERTFNLKFIRPFMQYNSTRAGGVEVGEDTIRRIEELNDLDMQLYDYARDLFQQRYQYKRQLERRQQRLRSREE | confirm the presence of N,2,6-HS products |  |
|  | SEQ ID NO: 47: mutant of residues 67-377 of the pig 6OST enzyme, SEQ ID NO: 22 mutations (protein, Amino acid sequence encoding for engineered arylsulfate-dependent 6-O-sulfotransferase variant 8) MKYYFPVRELERSLHFDMKGDDVIVFLHIGHTGGTTFGRHLVQNVRLEVPCDCRPGQKKCTCYRPNRRETWLFSRFSTGWSCGSHADWTELTNCVPGVLDRRDPAALRTPRKFYYITLLRDPVSRYLSGWRHHQRGGANKTSLHMCDGRTPTPEELPPCYEGTDWSGCTLQEFMDCPYNLGNNRQVRMLADLSLVGCYNLSFIPEGKRSQLLLESAKKNLRGMAFFGLTEFQRKTQYLFERTFNLKFIRPFMQYNSTRAGGVEVGEDTIRRIEELNDLDMQLYDYARDLFQQRYQYKRQLERRQQRLRSREE | confirm the presence of N,2,6-HS products |  |
|  | SEQ ID NO: 48: mutant of the full-length pig 6OST enzyme, SEQ ID NO: 18 mutations (protein, Amino acid sequence encoding for engineered arylsulfate-dependent 6-O-sulfotransferase variant 9) MRRRRAGSRTMVERASKFVLVVAGSACFMLILYQYAGPGLSLGAPGGRAPPDDLDLFPTPDPHYEKKYYFPVRELERSLHFDMKGDDVIVFLHIGHTGGTTFGRHLVQNVRLEVPCDCRPGQKKCTCYRPNRRETWLFSRFSTGWSCGTNADWTELTNCVPGVLDRRDPAALRTPRKFYYITLLRDPVSRYLGGWRHHQRGGTNKTSLHMCDGRTPTPEELPPCYEGTDWSGCTLQEFMDCPYNLANNRQVRMLADLSLVGCYNLSFIPEGKRSQLLLESAKKNLRGMAFFGLTEFQRKTQYLFERTFNLKFIRPFMQYNSTRAGGVEVGEDTIRRIEELNDLDMQLYDYARDLFQQRYQYKRQLERRQQRLRSREERLLHRAKEAPPRGDTEEPGRVPTEDYMSHIIEKW | confirm the presence of N,2,6-HS products |  |
|  | SEQ ID NO: 18: engineered aryl sulfate-dependent 6OST enzyme, mutant of isoform 1 of the mouse 6OST enzyme (protein, Amino acid sequence encoding for engineered arylsulfate-dependent 6-O-sulfotransferase variant 1, engineered aryl sulfate-dependent 6OST enzyme, mutant of isoform 1 of the mouse 6OST enzyme) MKYYFPVRELERSLRFDMKGDDVIVFLHIGHTGGTTFGRHLVQNVRLEVPCDCRPGQKKCTCYRPNRRETWLFSRFSTGWSCGTNADWTELTNCVPGVLDRRDPAGLRSPRKFYYITLLRDPVSRYLGGWRHHQRGGTNKTSLHMCDGRTPTPEELPPCYEGTDWSGCTLQEFMDCPYNLANNRQVRMLADLSLVGCYNLSFIPESKRAQLLLESAKKNLRGMAFFGLTEFQRKTQYLFERTFNLKFIRPFMQYNSTRAGGVEVDEDTIRHIEELNDLDMQLYDYAKDLFQQRYQYKRQLERREQRLRNREE |  | active when NCS was the sulfo group donor |
| the most active | SEQ ID NO: 22: engineered aryl sulfate-dependent 6OST enzyme, mutant of isoform 1 of the mouse 6OST enzyme (protein, Amino acid sequence encoding for engineered arylsulfate-dependent 6-O-sulfotransferase variant 3, engineered aryl sulfate-dependent 6OST enzyme, mutant of isoform 1 of the mouse 6OST enzyme) MKYYFPVRELERSLRFDMKGDDVIVFLHIGHTGGTTFGRHLVQNVRLEVPCDCRPGQKKCTCYRPNRRETWLFSRFSTGWSCGSHADWTELTNCVPGVLDRRDPAGLRSPRKFYYITLLRDPVSRYLSGWRHHQRGGANKTSLHMCDGRTPTPEELPPCYEGTDWSGCTLQEFMDCPYNLGNNRQVRMLADLSLVGCYNLSFIPESKRAQLLLESAKKNLRGMAFFGLTEFQRKTQYLFERTFNLKFIRPFMQYNSTRAGGVEVDEDTIRHIEELNDLDMQLYDYAKDLFQQRYQYKRQLERREQRLRNREE |  | active when PNS was the sulfo group donor |
|  | SEQ ID NO: 45: mutant of residues 67-377 of the pig 6OST enzyme, SEQ ID NO: 18 mutations (protein, Amino acid sequence encoding for engineered arylsulfate-dependent 6-O-sulfotransferase variant 6) MKYYFPVRELERSLHFDMKGDDVIVFLHIGHTGGTTFGRHLVQNVRLEVPCDCRPGQKKCTCYRPNRRETWLFSRFSTGWSCGTNADWTELTNCVPGVLDRRDPAALRTPRKFYYITLLRDPVSRYLGGWRHHQRGGTNKTSLHMCDGRTPTPEELPPCYEGTDWSGCTLQEFMDCPYNLANNRQVRMLADLSLVGCYNLSFIPEGKRSQLLLESAKKNLRGMAFFGLTEFQRKTQYLFERTFNLKFIRPFMQYNSTRAGGVEVGEDTIRRIEELNDLDMQLYDYARDLFQQRYQYKRQLERRQQRLRSREE | confirm the presence of N,2,6-HS products |  |
|  | SEQ ID NO: 20: engineered aryl sulfate-dependent 6OST enzyme, mutant of isoform 1 of the mouse 6OST enzyme (protein, Amino acid sequence encoding for engineered arylsulfate-dependent 6-O-sulfotransferase variant 2, engineered aryl sulfate-dependent 6OST enzyme, mutant of isoform 1 of the mouse 6OST enzyme) MKYYFPVRELERSLRFDMKGDDVIVFLHIGHTGGTTFGRHLVQNVRLEVPCDCRPGQKKCTCYRPNRRETWLFSRFSTGWSCGTRADWTELTNCVPGVLDRRDPAGLRSPRKFYYITLLRDPVSRYLSHWRHTQRGGANKTGLHMCDGRTPTPEELPPCYEGTDWSGCTLQEFMDCPYNLGNNRQVRMLADLSLVGCYNLSFIPESKRAQLLLESAKKNLRGMAFFGLTEFQRKTQYLFERTFNLKFIRPFMQYNSTRAGGVEVDEDTIRHIEELNDLDMQLYDYAKDLFQQRYQYKRQLERREQRLRNREE |  | active when NCS was the sulfo group donor |
